Data: IntAct's records for PubMed 39243984

B1: Mothers against decapentaplegic homolog 4 (Homo sapiens), Q13485 (parent)
chain: MDNMSITNTPTSNDACLSIVHSLMCHRQGGESETFAKRAIESLVKKLKEKKDELDSLITAITTNGAHPSKCVTIQRTLDGRLQVAGRKGFPHVIYARLWRWPDLHKNELKHVKYCQYAFDLKCDSVCVNPYHYERVVSPGIDLSGLTLQSNAPSSMMVKDEYVHDFEGQPSLSTEGHSIQTIQHPPSNRASTETYSTPALLAPSESNATSTANFPNIPVASTSQPASILGGSHSEGLLQIASGPQPGQQQNGFTGQPATYHHNSTTTWTGSRTAPYTPNLPHHQNGHLQHHPPMPPHPGHYWPVHNELAFQPPISNHPAPEYWCSIAYFEMDVQVGETFKVPSSCPIVTVDGYVDPSGGDRFCLGQLSNVHRTEAIERARLHIGKGVQLECKGEGDVWVRCLSDHAVFVQSYYLDREAGRAPGDAVHKIYPSAYIKVFDLRQCHRQMQQQAATAQAAAAAQAAAVAGNIPGPGSVGGIAPAISLSAAAGIGVDDLRRLCILRMSFVKGWGPDYPRQSIKETPCWIEIHLHRALQLLDEVLHTMPIADPQPLD

Variants of: B1
Settings: with smad3_human SMAD3, P84022
smad3_human SMAD3, P84022, sequence (P84022 whole entry, looked up): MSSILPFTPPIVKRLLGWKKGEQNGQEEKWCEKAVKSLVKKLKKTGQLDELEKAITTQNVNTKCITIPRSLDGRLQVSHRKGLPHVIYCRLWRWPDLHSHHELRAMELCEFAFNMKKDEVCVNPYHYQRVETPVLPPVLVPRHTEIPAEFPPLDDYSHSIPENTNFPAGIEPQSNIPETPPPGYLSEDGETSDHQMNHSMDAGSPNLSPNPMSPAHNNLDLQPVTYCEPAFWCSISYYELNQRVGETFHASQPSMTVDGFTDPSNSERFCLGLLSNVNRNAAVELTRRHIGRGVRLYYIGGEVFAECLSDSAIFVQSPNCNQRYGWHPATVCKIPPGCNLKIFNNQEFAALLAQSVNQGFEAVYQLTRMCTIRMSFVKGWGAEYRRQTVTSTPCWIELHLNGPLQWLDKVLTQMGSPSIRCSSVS

effect of a mutation on the interaction | Variant
increasing interaction strength | I500V

Variants of: B1
Settings: with smad3_human SMAD3, P84022
Remark: another data set of the same source

effect of a mutation on the interaction | Variant
decreasing interaction strength | R361C
decreasing interaction strength | R361H
